Test results from patent publication US20150166662A1 (ROCKEFELLER UNIVERSITY, published 2015).

Tests used:
[1] = molecular target: T1, recombinant sCD4 comprising the full-length extracellular domain of human CD4 (human, UniProt P01730 26-396); assay: SPR (Biacore), antibody amine-coupled on the chip, human sCD4 as analyte, 25 C, 1:1 Langmuir fit
T1 construct: also called human soluble CD4; human sCD4 protein
Protocol: (§1) Binding affinity analyses were performed with a Biacore T3000 optical biosensor (GE Healthcare, Piscataway, N.J.). Immobilization of ibalizumab and all the glycan variants were performed following the standard amine coupling procedure. Briefly, carboxyl groups on the sensor chip surface were activated by injection of 35 μL of a solution containing 0.2 M N-(3-dimethylaminopropyl)-N-ethylcarbodiimide and 0.05 M Nhydroxysuccinimide at a flow rate of 5 μL/minute. Next, ibalizumab or its mutant variant, at a concentration of 2 μg/mL in 10 mM sodium-acetate buffer, pH 4.5, was allowed to flow over the chip surface at a rate of 10 μL/minute until the desired level of response units of reacted protein (150-200 RU) was achieved. After unreacted protein was washed out, excess active ester groups on the sensor surface were capped by the injection of 35 μL of 1 M ethanolamine, pH 8.0, at a flow rate of 5 μL/minute. As background to correct instrument and buffer artifacts, a reference was generated under the same conditions with omission of the protein ligand. Binding experiments were performed at 25° C. in HBS-EP buffer (0.01 M HEPES, 0.15M NaCl, 3 mM EDTA, 0.005% vol/vol surfactant P20 (GE Healthcare). Binding kinetics were measured by passing various concentrations of analyte (human sCD4 protein) over the chip surface at a flow rate of 30 μL/minute for 3 min. Dissociation of bound analytes was monitored while the surface was washed for 10 min. Remaining analytes were removed at a flow rate of 50 µL/minute with two 30-sec injections of 10 mM glycine-HCl, pH 2.0. For kinetics data analysis, the kinetic parameters were determined by collectively fitting the overlaid sensograms […] using the BIAevaluation 4.1 software to the 1:1 Langmuir binding model.
(§2) We next evaluated the kinetics of binding of these ibalizumab LMs to human soluble CD4 (sCD4) by surface plasmon resonance. In a Biacore assay using sCD4 as the analyte, WT ibalizumab and LMs bound sCD4 with similar binding kinetics.

[2] = molecular target: T1, recombinant sCD4 comprising the …; assay: SPR (Biacore), sCD4 as analyte; member of the six by its KD in Table 1
Protocol: as §1, §2

Binder	Kd [1] [nM]	koff [1] [s⁻¹]	kon [1] [M⁻¹ s⁻¹]	fold of KD against wild-type ibalizumab [2] [fold]
LM30E, ibalizumab light chain mutant with an N-linked glycosylation site at position 30E (antibody, human IgG1, kappa, V domains shown) VH: QVQLQQSGPEVVKPGASVKMSCKASGYTFTSYVIHWVRQKPGQGLDWIGYINPYNDGTDYDEKFKGKATLTSDTSTSTAYMELSSLRSEDTAVYYCAREKDNYATGAWFAYWGQGTLVTVSS VL: DIVMTQSPDSLAVSLGERVTMNCKSSQSLLYSTNNATYLAWYQQKPGQSPKLLIYWASTRESGVPDRFSGSGSGTDFTLTISSVQAEDVAVYYCQQYYSYRTFGGGTKLEIKR	1.4	0.00015	110000	–
LM60, ibalizumab light chain mutant with an N-linked glycosylation site at position 60 (antibody, human IgG1, kappa, V domains shown) VH: QVQLQQSGPEVVKPGASVKMSCKASGYTFTSYVIHWVRQKPGQGLDWIGYINPYNDGTDYDEKFKGKATLTSDTSTSTAYMELSSLRSEDTAVYYCAREKDNYATGAWFAYWGQGTLVTVSS VL: DIVMTQSPDSLAVSLGERVTMNCKSSQSLLYSTNQKNYLAWYQQKPGQSPKLLIYWASTRESGVPNATSGSGSGTDFTLTISSVQAEDVAVYYCQQYYSYRTFGGGTKLEIKR	0.19	8.3e-05	440000	≤ 2
LM67, ibalizumab light chain mutant with an N-linked glycosylation site at position 67 (antibody, human IgG1, kappa, V domains shown) VH: QVQLQQSGPEVVKPGASVKMSCKASGYTFTSYVIHWVRQKPGQGLDWIGYINPYNDGTDYDEKFKGKATLTSDTSTSTAYMELSSLRSEDTAVYYCAREKDNYATGAWFAYWGQGTLVTVSS VL: DIVMTQSPDSLAVSLGERVTMNCKSSQSLLYSTNQKNYLAWYQQKPGQSPKLLIYWASTRESGVPDRFSGSGNATDFTLTISSVQAEDVAVYYCQQYYSYRTFGGGTKLEIKR	0.8	0.0002	250000	≤ 2
LM53, ibalizumab light chain mutant with an N-linked glycosylation site at position 53 (antibody, human IgG1, kappa, V domains shown) VH: QVQLQQSGPEVVKPGASVKMSCKASGYTFTSYVIHWVRQKPGQGLDWIGYINPYNDGTDYDEKFKGKATLTSDTSTSTAYMELSSLRSEDTAVYYCAREKDNYATGAWFAYWGQGTLVTVSS VL: DIVMTQSPDSLAVSLGERVTMNCKSSQSLLYSTNQKNYLAWYQQKPGQSPKLLIYWASNATSGVPDRFSGSGSGTDFTLTISSVQAEDVAVYYCQQYYSYRTFGGGTKLEIKR	0.45	0.00013	290000	≤ 2
LM52, glycan-modified anti-CD4 IgG1 antibody with an N-linked glycan at light chain position 52 (antibody, V domains shown) VH: QVQLQQSGPEVVKPGASVKMSCKASGYTFTSYVIHWVRQKPGQGLDWIGYINPYNDGTDYDEKFKGKATLTSDTSTSTAYMELSSLRSEDTAVYYCAREKDNYATGAWFAYWGQGTLVTVSS VL: DIVMTQSPDSLAVSLGERVTMNCKSSQSLLYSTNQKNYLAWYQQKPGQSPKLLIYWANSTESGVPDRFSGSGSGTDFTLTISSVQAEDVAVYYCQQYYSYRTFGGGTKLEIKR	0.35	0.00016	460000	≤ 2
LM76, ibalizumab light chain mutant with an N-linked glycosylation site at position 76 (antibody, human IgG1, kappa, V domains shown) VH: QVQLQQSGPEVVKPGASVKMSCKASGYTFTSYVIHWVRQKPGQGLDWIGYINPYNDGTDYDEKFKGKATLTSDTSTSTAYMELSSLRSEDTAVYYCAREKDNYATGAWFAYWGQGTLVTVSS VL: DIVMTQSPDSLAVSLGERVTMNCKSSQSLLYSTNQKNYLAWYQQKPGQSPKLLIYWASTRESGVPDRFSGSGSGTDFTLTINATQAEDVAVYYCQQYYSYRTFGGGTKLEIKR	0.28	0.00014	500000	≤ 2
LM54, ibalizumab light chain mutant with an N-linked glycosylation site at position 54 (antibody, human IgG1, kappa, V domains shown) VH: QVQLQQSGPEVVKPGASVKMSCKASGYTFTSYVIHWVRQKPGQGLDWIGYINPYNDGTDYDEKFKGKATLTSDTSTSTAYMELSSLRSEDTAVYYCAREKDNYATGAWFAYWGQGTLVTVSS VL: DIVMTQSPDSLAVSLGERVTMNCKSSQSLLYSTNQKNYLAWYQQKPGQSPKLLIYWASTNATGVPDRFSGSGSGTDFTLTISSVQAEDVAVYYCQQYYSYRTFGGGTKLEIKR	0.73	0.00027	370000	≤ 2
LM65, ibalizumab light chain mutant with an N-linked glycosylation site at position 65 (antibody, human IgG1, kappa, V domains shown) VH: QVQLQQSGPEVVKPGASVKMSCKASGYTFTSYVIHWVRQKPGQGLDWIGYINPYNDGTDYDEKFKGKATLTSDTSTSTAYMELSSLRSEDTAVYYCAREKDNYATGAWFAYWGQGTLVTVSS VL: DIVMTQSPDSLAVSLGERVTMNCKSSQSLLYSTNQKNYLAWYQQKPGQSPKLLIYWASTRESGVPDRFSGNATGTDFTLTISSVQAEDVAVYYCQQYYSYRTFGGGTKLEIKR	1.5	0.00049	330000	–
